Laboratory results published in article PMC3509593, “Role of Key Residues at the Flavin Mononucleotide (FMN):Adenylyltransferase Catalytic Site of the Bifunctional Riboflavin Kinase/Flavin Adenine Dinucleotide (FAD) Synthetase from Corynebacterium ammoniagenes” (International Journal of Molecular Sciences, 2012).

Biological target: the molecule itself
Experiment: SEC; gel filtration of the purified samples on a HiPrep 26/60 Sephacryl S-200 HR column, used to separate the monomeric fraction

B1: FAD synthetase from Corynebacterium ammoniagenes (wild type) (enzyme)
chain: MDIWYGTAAVPKDLDNSAVTIGVFDGVHRGHQKLINATVEKAREVGAKAIMVTFDPHPVSVFLPRRAPLGITTLAERFALAESFGIDGVLVIDFTRELSGTSPEKYVEFLLEDTLHASHVVVGANFTFGENAAGTADSLRQICQSRLTVDVIDLLDDEGVRISSTTVREFLSEGDVARANWALGRHFYVTGPVVRGAGRGGKELGFPTANQYFHDTVALPADGVYAGWLTILPTEAPVSGNMEPEVAYAAAISVGTNPTFGDEQRSVESFVLDRDADLYGHDVKVEFVDHVRAMEKFDSVEQLLEVMAKDVQKTRTLLAQDVQAHKMAPETYFLQAES
notes: FAD synthetase (bifunctional RFK/FMNAT) of Corynebacterium ammoniagenes; N-terminal FMNAT-module residues 1-186 and C-terminal RFK-module residues 187-338; also called CaFADS; WT CaFADS; source: gel filtration on Sephacryl S-200 HR
- binding result: binds
